These results are taken from patent US20220396616A1.

The target in test [1] is human CLDN18.1 (human) (UniProt P56856). Briefly: flow cytometry on CLDN18.1-HEK293 cells, 100 µg/mL antibody, replicate 2. On the technique in general: In flow cytometry, cells or beads pass a laser one at a time.
Test [2] has the same target. Briefly: flow cytometry on CLDN18.1-HEK293 cells, 100 µg/mL antibody, replicate 3.
The target is the same in test [3]. Description: flow cytometry on CLDN18.1-HEK293 cells, 100 µg/mL antibody, replicate 1.

human CLDN18.1 (human), sequence (P56856 whole entry): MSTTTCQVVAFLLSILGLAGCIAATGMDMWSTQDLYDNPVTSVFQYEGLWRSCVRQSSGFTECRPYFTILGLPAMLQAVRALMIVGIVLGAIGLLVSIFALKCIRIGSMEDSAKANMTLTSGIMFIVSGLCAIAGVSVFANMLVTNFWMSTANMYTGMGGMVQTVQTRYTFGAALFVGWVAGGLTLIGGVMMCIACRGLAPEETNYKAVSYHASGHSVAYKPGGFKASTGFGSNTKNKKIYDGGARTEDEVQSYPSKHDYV

With hIgG1 isotype antibody, the positive rate of cell binding was determined as 0.233% in the test with human CLDN18.1 (human) [1], 0.115% with human CLDN18.1 (human) [2] and 0.063% with human CLDN18.1 (human) [3].
